This note sets out measurements from PMC5013595.

The nature of series [1]: secretion into S2 culture medium. Particulars: glycan lost; control: wild type.
A short description of series [2]: size-exclusion chromatography. As to conditions: glycan lost; control: glycosylated IFNγR2.

B1: interferon-γ receptor 2 (IFNγR2): N110Q (protein)
parent chain: MRPTLLWSLLLLLGVFAAAAAAPPDPLSQLPAPQHPKIRLYNAEQVLSWEPVALSNSTRPVVYQVQFKYTDSKWFTADIMSIGVNCTQITATECDFTAASPSAGFPMDFNVTLRLRAELGALHSAWVTMPWFQHYRNVTVGPPENIEVTPGEGSLIIRFSSPFDIADTSTAFFCYYVHYWEKGGIQQVKGPFRSNSISLDNLKPSRVYCLQVQAQLLWNKSNIFRVGHLSNISCYETMADASTELQQVILISVGTFSLLSVLAGACFFLVLKYRGLIKYWFHTPPSIPLQIEEYLKDPTQPILEALDKDSSPKDDVWDSVSIISFPEKEQEDVLQTL
B1: the expression_or_secretion entry in series [1] is “abolishes”.

B2: interferon-γ receptor 2 (IFNγR2): N231Q (protein)
parent chain: B1 parent chain
Turning to B2, the expression_or_secretion entry in series [1] is given as “abolishes”.

B3: interferon-γ receptor 2 (IFNγR2): N137Q (protein)
parent chain: B1 parent chain
Turning to B3, in series [1], the expression_or_secretion result is recorded as “abolishes”.

B4: interferon-γ receptor 2 (IFNγR2): N56Q, N110Q, N137Q and N231Q (protein)
parent chain: B1 parent chain
Regarding B4, the expression_or_secretion entry in series [1] is “abolishes”.

B5: interferon-γ receptor 2 (IFNγR2): PNGase F (protein)
parent chain: B1 parent chain
Consider B5, for which the oligomerisation entry in series [2] is listed as “increases”.

B6: interferon-γ receptor 2 (IFNγR2): Endo H (protein)
parent chain: B1 parent chain
As to B6, the oligomerisation result in series [2] was “no change”.
